The source of these data is patent US20100248328A1, “HYPERACTIVE VARIANTS OF 5-AMINOLEVULINATE SYNTHASE AND METHODS OF USE” (UNIVERSITY OF SOUTH FLORIDA, priority 2005, published 2010).

Like-named read-outs stand apart in the source and are kept apart here.

Series [1] has as its system H1299 lung carcinoma cells. The conditions noted are these: added to cells infected with ALAS construct; cited from earlier work.
For series [2] the following is noted: 37 C, pH 7.2; cited from earlier work.
A short description of series [3]: Temperature dependence of steady-state kinetics, Arrhenius plot, thermodynamic activation parameters. Format: biochemical. How it is done:
FIG. 9 is a graph showing the thermal dependence of the SS2 variant-catalyzed reaction. kcat values were calculated by performing steady-state kinetics at different temperatures. (A) an Arrhenius plot depicting the difference between the wild-type ([…]) and the SS2 variant-catalyzed (◯) reactions at 288, 293, 298, 303 and 308K. Error bars are plotted over and partially obscured by the data points.
(§1) The ALAS steady-state kinetic parameters of wild-type ALAS and the SS2 variant activity assays were also determined at 15, 25, and 35° C.
The natural log of the calculated values for the turnover numbers (lnkcat) were plotted vs. the inverse of temperature and the data were fit to the Arrhenius equation.
where Ea is the activation energy, R is the universal gas constant, T is the absolute temperature, and A is the frequency factor. The determined activation energies were then used to calculate the thermodynamic activation parameters, ΔH, ΔG and ΔS, as previously described (Hunter, et al. Transient kinetic studies support refinements to the chemical and kinetic mechanisms of aminolevulinate synthase. J Biol. Chem. 2007 Aug. 10; 282(32):23025-35. Epub 2007 May 7). The turnover numbers for each enzyme were used to construct an Arrhenius plot, from which the thermodynamic activation parameters were derived seen in Table 4.

Series [4] is described as follows: ALAS steady-state activity, continuous spectrophotometric assay. Format: biochemical. Conditions: 20° C. How it is done:
ALAS steady-state activity of the ALAS active site loop variants was determined at 20° C. using a continuous spectrophotometric assay as described previously for wild-type ALAS (Hunter & Ferreira. A continuous spectrophotometric assay for 5-aminolevulinate synthase that utilizes substrate cycling. Anal Biochem. 1995 Apr. 10; 226(2):221-4). Rapid scanning stopped-flow measurements were performed using a model RSM-100 stopped-flow spectrophotometer (OLIS, Inc.). This instrument has a dead-time of approximately 2-ms and an observation chamber path length of 4 mm Spectral scans covering a wavelength range of 300-570 nm were collected at a rate of 1000 scans/s and then averaged to 62 scans/s in order to reduce the time course data files to an appropriate size for global fit analyses. The temperature of the syringes and the stopped-flow cell compartment was maintained at 20° C. by an external water bath. Pre-steady-state kinetic reactions of the variant enzymes were examined under single turnover conditions, using final concentrations of 60 μM enzyme, 120 mM glycine and 10 μM succinyl-CoA in 100 mM HEPES, pH 7.5 and 10% (v/v) glycerol as previously described (Hunter, & Ferreira. Pre-steady-state reaction of 5-aminolevulinate synthase. Evidence for a rate-determining product release J Biol Chem. 1999 Apr. 30; 274(18):12222-8). Single turnover data were evaluated using either a two- or three-kinetic-step mechanism as described by Equations 1 and 2, respectively (Hunter, & Ferreira. Pre-steady-state reaction of 5-aminolevulinate synthase. Evidence for a rate-determining product release J Biol Chem. 1999 Apr. 30; 274(18):12222-8).
as §1

Series [5] can be described thus: Pre-steady-state single turnover reactions, rapid scanning stopped-flow (quinonoid intermediate, 510 nm). The class given is biochemical. The conditions noted are these: 20° C. How it is done:
FIGS. 5(A) through (D) are graphs showing the single turnover reactions of isolated hyperactive ALAS variants. The pre-steady state kinetic parameters were determined under single turnover conditions (60 μM enzyme-glycine complex, 10 μM succinyl-CoA) at 20° C. by monitoring absorbance changes at 510 nm. The variant catalyzed reactions A4, D8, G7, A8, (panels A-D, respectively) resemble that of the wild-type enzyme in that quinonoid lifetime is observed as a single step of quinonoid intermediate formation and 2-step process of decay (Hunter, & Ferreira. Pre-steady-state reaction of 5-aminolevulinate synthase. Evidence for a rate-determining product release J Biol. Chem. 1999 Apr. 30; 274(18):12222-8).
FIGS. 6(A) through (D) are graphs showing the single turnover reactions of isolated hyperactive ALAS variants. The pre-steady state kinetic parameters were determined under single turnover conditions (60 μM enzyme-glycine complex, 10 μM succinyl-CoA) at 20° C. by monitoring absorbance changes at 510 nm. […]
FIG. 7 is a graph showing the SS2 variant catalyzed reaction. Equilibrium and pre-steady state kinetic parameters for the SS2 variant were determined at 20° C. by monitoring changes in absorbance at 510 nm associated with quinonoid intermediate lifetime, under single-turnover conditions.
ALAS steady-state activity of the ALAS active site loop variants was determined at 20° C. using a continuous spectrophotometric assay as described previously for wild-type ALAS (Hunter & Ferreira. A continuous spectrophotometric assay for 5-aminolevulinate synthase that utilizes substrate cycling. Anal Biochem. 1995 Apr. 10; 226(2):221-4). […] Single turnover data were evaluated using either a two- or three-kinetic-step mechanism as described by Equations 1 and 2, respectively (Hunter, & Ferreira. Pre-steady-state reaction of 5-aminolevulinate synthase. Evidence for a rate-determining product release J Biol Chem. 1999 Apr. 30; 274(18):12222-8). […]

Take `CC(=O)N(O)CCCCCNC(=O)CCC(=O)N(O)CCCCCNC(=O)CCC(=O)N(O)CCCCCN` [desferrioxamine]: the Potentiation of photosensitivity result in series [1] is “two-fold”.

B1: WT: wild-type murine erythroid 5-aminolevulinate synthase (mALAS-2) (protein, UniProt P08680 50-587, looked up)
5-aminolevulinate synthase, …: QIHLKATKAGGDSPSWAKSHCPFMLSELQDRKSKIVQRAAPEVQEDVKTFKTDLLSTMDSTTRSHSFPSFQEPEQTEGAVPHLIQNNMTGSQAFGYDQFFRDKIMEKKQDHTYRVFKTVNRWANAYPFAQHFSEASMASKDVSVWCSNDYLGISRHPRVLQAIEETLKNHGAGAGGTRNISGTSKFHVELEQELAELHQKDSALLFSSCFVANDSTLFTLAKLLPGCEIYSDAGNHASMIQGIRNSGAAKFVFRHNDPGHLKKLLEKSDPKTPKIVAFETVHSMDGAICPLEELCDVAHQYGALTFVDEVHAVGLYGARGAGIGERDGIMHKLDIISGTLGKAFGCVGGYIASTRDLVDMVRSYAAGFIFTTSLPPMVLSGALESVRLLKGEEGQALRRAHQRNVKHMRQLLMDRGFPVIPCPSHIIPIRVGNAALNSKICDLLLSKHSIYVQAINYPTVPRGEELLRLAPSPHHSPQMMENFVEKLLLAWTEVGLPLQDVSVAACNFCHRPVHFELMSEWERSYFGNMGPQYVTTYA
Consider B1, for which, in series [2], the “Catalytic efficiency for the substrate glycine” value was 56.7 M⁻¹ s⁻¹. In series [3] (30° C.), the “ΔG^‡ (30° C.)” value is 19 kcal/mol, the “ΔH^‡ (30° C.)” value was 48 kcal/mol and the “ΔS^‡ (30° C.)” value is −95 cal/mol · K. For the same molecule, the “Slope/(K) of Arrhenius plot” value in series [3] (288-308 K) is −24000 K. The “Ea, activation energy” value in series [3] (288-308 K, listed as WTALAS) was 48 kcal/mol. For the same molecule, the “Q10 for the catalytic rate constant” value in series [3] (steady-state temperature dependence) is given as “seven”. Besides, the Kcat in series [4] came out at 0.02 ± 0.01 s⁻¹. Besides, the Km in series [4] (read-out: Km^Gly) worked out at 14 ± 2 mM. In addition, the Michaelis-Menten constant (Km) in series [4] (read-out: Km^SCoA) came to 0.011 ± 0.001 mM. In addition, the “Qf, rate for quinonoid intermediate formation” value in series [5] (60 μM enzyme, 120 mM glycine, 10 μM succinyl-CoA) was 0.8 s⁻¹. In addition, in series [5], the “Qd1, rate for first step of quinonoid intermediate decay” value was 0.53 s⁻¹ and the “Qd2, rate for second step of quinonoid intermediate decay” value is 0.01 s⁻¹.
